Experimental data as given in patent US20020164762.

T1: Acetyl-Tyr-Val-Ala-Asp-pNA
T1 chain: YVAD

T2: Acetyl-Asp-Glu-Val-Asp-pNA
T2 chain: DEVD


Key:
[1] = biological target: T1, Acetyl-Tyr-Val-Ala-Asp-pNA
[2] = biological target: T2, Acetyl-Asp-Glu-Val-Asp-pNA

Protein | Km values [1] | Vmax values (M^-1 s^-1) [1] | Km values [2] | Vmax values (M^-1 s^-1) [2]
D381E N-His ICE (D381E-modified human interleukin-1β converting enzyme, p20/p10, with N-terminal polyhistidine tag) (protein) chain 1: HHHHHHNPAMPTSSGSEGNVKLCSLEEAQRIWKQKSAEIYPIMDKSSRTRLALIICNEEFDSIPRRTGAEVDITGMTMLLQNLGYSVDVKKNLTASDMTTELEAFAHRPEHKTSDSTFLVFMSHGIREGICGKKHSEQVPDILQLNAIFNMLNTKNCPSLKDKPKVIIIQACRGDSPGVVWFKD chain 2: AIKKAHIEKDFIAFCSSTPDNVSWRHPTMGSVFIGRLIEHMQEYACSCDVEEIFRKVRFSFEQPEGRAQMPTTERVTLTRCFYLFPGH | 43 µM | 0.19 | 44 µM | 0.08
WT N-His ICE (wild-type human interleukin-1β converting enzyme, p20/p10, with N-terminal polyhistidine tag) (protein) chain 1: HHHHHHNPAMPTSSGSEGNVKLCSLEEAQRIWKQKSAEIYPIMDKSSRTRLALIICNEEFDSIPRRTGAEVDITGMTMLLQNLGYSVDVKKNLTASDMTTELEAFAHRPEHKTSDSTFLVFMSHGIREGICGKKHSEQVPDILQLNAIFNMLNTKNCPSLKDKPKVIIIQACRGDSPGVVWFKD chain 2: AIKKAHIEKDFIAFCSSTPDNVSWRHPTMGSVFIGRLIEHMQEYACSCDVEEIFRKVRFSFEQPDGRAQMPTTERVTLTRCFYLFPGH | 26 µM | 0.04 | 25 µM | 0.02
